Experimental findings from patent US20260022179A1 (CHINA MEDICAL UNIVERSITY, published 2026) are described below.

In assay [1] the target is T1, recombinant human EphA10 extracellular domain protein (Glu34-Ala565), transcript variant 3, fused with … (human, UniProt Q5JZY3 34-565).
T1 construct: range 34-565; Commercial protein used for panning and the screening ELISA; also called EPHA10-369H (Creative Biomart); not shown: C-terminal DDK/His tag
T1 sequence (looked up): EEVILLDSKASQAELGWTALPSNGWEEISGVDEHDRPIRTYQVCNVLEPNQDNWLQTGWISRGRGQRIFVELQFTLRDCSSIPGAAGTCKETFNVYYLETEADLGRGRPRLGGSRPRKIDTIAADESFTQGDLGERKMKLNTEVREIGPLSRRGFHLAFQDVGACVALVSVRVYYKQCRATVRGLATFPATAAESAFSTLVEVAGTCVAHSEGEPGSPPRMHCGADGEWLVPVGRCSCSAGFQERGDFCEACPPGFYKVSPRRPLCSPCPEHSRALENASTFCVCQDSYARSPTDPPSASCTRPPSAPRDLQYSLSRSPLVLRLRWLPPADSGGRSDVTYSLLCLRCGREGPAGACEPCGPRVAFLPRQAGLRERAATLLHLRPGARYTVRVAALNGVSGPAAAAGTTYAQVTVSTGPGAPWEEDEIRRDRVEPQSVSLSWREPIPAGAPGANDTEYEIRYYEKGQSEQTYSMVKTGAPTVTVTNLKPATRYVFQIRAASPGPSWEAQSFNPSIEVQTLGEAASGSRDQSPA
Kind of assay: ELISA screen of phage display clones after panning on the recombinant protein. An excerpt:
(§1) A human B cell-derived scFv phage display library (Creative BioLabs, USA) was used to pan against the recombinant human EphA10 extracellular domain protein (Glu34-Ala565), transcript variant 3, fused with DDK/His tag at C-terminal (Creative Biomart, USA, Catalog no. EPHA10-369H). Positive clones were screened using ELISA. A unique CMU #5 were identified by DNA sequencing. The binding specificity of the unique clones was confirmed by FACS using full-length human EphA 10-expressing NIH 3T3 cells.

For assay [2], the target named is T2, full-length human EphA10 expressed on NIH 3T3 cells (human, UniProt Q5JZY3 34-1008).
T2 construct: whole, on cells; also called full-length human EphA 10-expressing NIH 3T3 cells
T2 sequence (looked up): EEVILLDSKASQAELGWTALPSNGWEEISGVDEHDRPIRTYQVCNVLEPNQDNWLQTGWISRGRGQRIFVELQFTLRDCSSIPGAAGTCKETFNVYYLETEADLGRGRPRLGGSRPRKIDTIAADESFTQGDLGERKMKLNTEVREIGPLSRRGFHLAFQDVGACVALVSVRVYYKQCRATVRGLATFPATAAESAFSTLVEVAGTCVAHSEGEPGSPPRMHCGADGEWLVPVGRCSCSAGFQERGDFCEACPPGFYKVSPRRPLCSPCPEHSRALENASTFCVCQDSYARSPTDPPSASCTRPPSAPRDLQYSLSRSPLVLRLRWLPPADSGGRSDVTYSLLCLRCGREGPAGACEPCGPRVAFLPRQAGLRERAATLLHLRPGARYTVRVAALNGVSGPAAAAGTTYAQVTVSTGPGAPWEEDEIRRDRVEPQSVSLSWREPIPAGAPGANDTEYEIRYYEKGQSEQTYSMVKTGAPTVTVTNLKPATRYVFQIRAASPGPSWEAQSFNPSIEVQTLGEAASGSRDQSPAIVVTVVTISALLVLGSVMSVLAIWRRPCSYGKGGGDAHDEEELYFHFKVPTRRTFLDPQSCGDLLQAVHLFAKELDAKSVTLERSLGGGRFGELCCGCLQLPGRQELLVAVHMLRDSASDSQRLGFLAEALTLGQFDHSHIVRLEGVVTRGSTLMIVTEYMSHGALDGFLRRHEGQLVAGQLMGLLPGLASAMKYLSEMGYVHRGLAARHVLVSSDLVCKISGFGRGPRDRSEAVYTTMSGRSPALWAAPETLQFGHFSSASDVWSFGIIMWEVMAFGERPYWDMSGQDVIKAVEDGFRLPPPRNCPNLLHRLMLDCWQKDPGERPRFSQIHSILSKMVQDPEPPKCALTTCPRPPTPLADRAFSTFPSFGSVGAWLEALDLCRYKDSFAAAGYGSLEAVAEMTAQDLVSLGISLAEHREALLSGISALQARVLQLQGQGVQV
Kind of assay: FACS on transfected NIH 3T3 cells.
Description: as §1

B1: CMU #5 scFv (clone from the human B cell-derived scFv phage display library) (scFv)
scFv: EVQLVQSGGGVVQPGGSLRLSCAASGFTFDDYAMHWVRQAPGKGLEWVAVISYDGSNKYYADSVKGRFTISRDNSKNTLYLQMNSLRAEDTAVYYCARDGLPAFDIWGKGTLVTVSSGGGGSGGGGSGGGGSEIVLTQSPATLSVSPGERAILSCRASQSVRSNLAWYQQKPGQPPRLVIYDASSRATGIPARFSGSGSGTDFTLTISSLEPEDFAAYYCQQYGSSQLTFGGGTKLEIKR
notes: This is the clone as screened after panning
Regarding B1, the binding result in assay [1] and in assay [2] was “binds” throughout.
